From patent US20130171235A1

Biological target: PTEN-long (endogenous human form, translated from the upstream CUG start site of PTEN mRNA) (Homo sapiens)
Experiment: concanavalin A sepharose pulldown from HEK293 lysate, immunoblot

share of PTEN-long in the PTEN pulled down: 50%
Substance: concanavalin A (lectin, on sepharose) (from UniProt P02866)
